The source of these data is patent US20070286858A1 (Pfizer, published 2007).

Substitutions are numbered along the chain they refer to. Names and notes keep the numbering of the source. Values joined by “and” are separate entries in the source; they are usually repeats but may differ in a detail not shown here. Identical values can stand only once.

Assay [1] has as its target T1, human RAGE-Fc fusion protein (human, UniProt Q15109 23-344).
T1 construct: also called hRAGE-Fc; huRAGE-Fc; not shown: Fc domain of human IgG
Put plainly: ELISA of in vitro translated ScFv on coated human RAGE-Fc, anti-Flag detection. Here is the method:
ELISA plates coated with human RAGE-Fc (5 ug/ml) or BSA (200 ug/ml) in bicarbonate buffer overnight at 4° C., washed with PBS+tween 0.05% and blocked for 1 hour at room temperature with 2% milk powder PBS. Plates were incubated with in vitro translated ScFv for 2 hours at room temp. Plates were blocked and detection was with anti-Flag antibody (1/1000 dilution) followed by rabbit anti-mouse HRP (1/1000 dilution). […] Values for Kd of the ScFv in both formats as determined by BIACORE™ are used to determine the optimum antigen concentrations for selection experiments.
In general terms: An ELISA detects its analyte on a solid surface through an enzyme-linked reagent.

Assay [2] has as its target T1, human RAGE-Fc fusion protein. Put plainly: competition ELISA on human RAGE-Fc; labelled competitor not named.
Assay [3] has the same target. Put plainly: competition ELISA on coated hRAGE-Fc; competitor 12.5 ng/ml biotinylated rat XT-M4. Here is the method: ELISA plates were coated overnight with 1 ug/ml human RAGE-Fc. […] Briefly, plates were coated overnight with 1 ug/ml human RAGE-Fc.

B1: XT-H2 VH-VL ScFv construct (scFv)
scFv: QVQLQQSGAELAKPGASVKMSCKASGYTFTTYWMHWVKQRPGQGLYWIGYINPSTGYTEYNQKFKDKATLTADKSSSTAYMQLSSLTSEDSAVYYCARWAGYTIDYWGQGTSVTVSSDGGGSGGGGSGGGGSSDVVLTQTPLSLPVNIGDQASISCKSTKSLLNSDGFTYLDWYLQKPGQSPQLLIYLVSDRFSGVPDRFSGSGSGTDFTLTISRVEAEDLGVYYCFQSNSLPLTFGSGTKLEIK
notes: Flag tag inferred from detection
As to B1, the binding result in assay [1] was “binds”.

B2: XT-M4 VH-VL ScFv construct (scFv)
scFv: EVQLVESGGGLVQPGRSLKLSCVVSGFTFNNYWMTWIRQTPGKGLEWVASINNSGDNTYYPDSVKDRFTISRDNAKSTLYLQMNSLRSEDTATYYCTRGGDITTGFDYWGQGVMVTVSSDGGGSGGGGSGGGGSSDIQMTQSPSSMSVSLGDTITITCRASQDVGIYVNWFQQKPGKSPRRMIYRATNLADGVPSRFSGSRSGSIYSLTISSLESEDVADYHCLEFDEHPLTFGSGTKVEIK
notes: as for B1
As to B2, the binding result in assay [1] is given as “binds”.

B3: mVH / v2.0 (V2, L4, S48) (antibody, V domains shown)
VH: QVQLQQSGAELAKPGASVKMSCKASGYTFTTYWMHWVKQRPGQGLYWIGYINPSTGYTEYNQKFKDKATLTADKSSSTAYMQLSSLTSEDSAVYYCARWAGYTIDYWGQGTSVTVSS
VL: DVVLTQTPLSLSVTPGQPASISCKSTKSLLNSDGFTYLDWYLQKPGQSPQLLIYLVSDRFSGVPDRFSGSGSGTDFTLKISRVEAEDVGVYYCFQSNSLPLTFGGGTKVEIK
notes: XT-H2 construct expressed in COS cells; also called XT-H2 mVH + hVL V2.0
Take B3: in assay [2], the ED50 was found to be 7 nM.

B4: V2.0 (R40, Y46, I48, A71, K73) / v2.0 (V2, L4, S48) (antibody, V domains shown)
VH: QVQLVQSGAEVKKPGASVKVSCKASGYTFTTYWMHWVRQRPGQGLYWIGYINPSTGYTEYNQKFKDRVTMTADTSISTAYMELSRLRSDDTAVYYCARWAGYTIDYWGQGTLVTVSS
VL: B3 VL
notes: XT-H2 construct expressed in COS cells; also called XT-H2 hVH V2.0 + hVL V2.0
Turning to B4, the ED50 in assay [2] stood at 5 nM.

B5: V2.3 (I48M) / v2.0 (antibody, V domains shown)
VH: B4 VH with I48M
VL: B3 VL
notes: XT-H2 construct expressed in COS cells; also called XT-H2 hVH V2.3 + hVL V2.0
With B5, the ED50 in assay [2] amounted to 4.5 nM.

B6: V2.2 (Y46E) / v2.1 (antibody, V domains shown)
VH: B4 VH with Y46E
VL: B3 VL with V2I, L4M
notes: XT-H2 construct expressed in COS cells; also called XT-H2 hVH V2.2 + hVL V2.1
In assay [2], B6 had an ED50 of 5 nM.

B7: V2.2 (Y46E) / mVL (antibody, V domains shown)
VH: B4 VH with Y46E
VL: B3 VL with S12P, T14N, P15I, Q17D, P18Q, K79T, V88L, G105S, V109L
notes: XT-H2 construct expressed in COS cells; also called XT-H2 hVH V2.2 + mVL
For B7, the ED50 in assay [2] was 6 nM.

B8: V2.1 (R40A) / v2.1 (antibody, V domains shown)
VH: B4 VH with R40A
VL: B3 VL with V2I, L4M
notes: XT-H2 construct expressed in COS cells; also called XT-H2 hVH V2.1 + hVL V2.1
In the case of B8, the ED50 in assay [2] came to 7.5 nM.

B9: V2.1 (R40A) / v2.0 (antibody, V domains shown)
VH: B4 VH with R40A
VL: B3 VL
notes: XT-H2 construct expressed in COS cells; also called XT-H2 hVH V2.1 + hVL V2.0
Molecule B9 came in with an ED50 in assay [2] of 4 nM.

B10: V2.2 (Y46E) / v2.0 (antibody, V domains shown)
VH: B4 VH with Y46E
VL: B3 VL
notes: XT-H2 construct expressed in COS cells; also called XT-H2 hVH V2.2 + hVL V2.0
The molecule B10 had an ED50 in assay [2] of 4 nM.

B11: V2.3 (I48M) / mVL (antibody, V domains shown)
VH: B4 VH with I48M
VL: B3 VL with S12P, T14N, P15I, Q17D, P18Q, K79T, V88L, G105S, V109L
notes: XT-H2 construct expressed in COS cells; also called XT-H2 hVH V2.3 + mVL
Take B11: in assay [2], the ED50 turned out to be 10 nM.

B12: V2.0 (R40, Y46, I48, A71, K73) / v2.1 (V2I, L4M) (antibody, V domains shown)
VH: B4 VH
VL: B3 VL with V2I, L4M
notes: XT-H2 construct expressed in COS cells; also called XT-H2 hVH V2.0 + hVL V2.1
Molecule B12 showed an ED50 in assay [2] of 5 nM.

B13: V2.1 (R40A) / mVL (antibody, V domains shown)
VH: B4 VH with R40A
VL: B3 VL with S12P, T14N, P15I, Q17D, P18Q, K79T, V88L, G105S, V109L
notes: XT-H2 construct expressed in COS cells; also called XT-H2 hVH V2.1 + mVL
In assay [2], B13 displayed an ED50 of 8 nM.

B14: V2.3 (I48M) / v2.1 (antibody, V domains shown)
VH: B4 VH with I48M
VL: B3 VL with V2I, L4M
notes: XT-H2 construct expressed in COS cells; also called XT-H2 hVH V2.3 + hVL V2.1
Consider B14, for which, in assay [2], the ED50 came out at 5 nM.

B15: V2.0 (R40, Y46, I48, A71, K73) / mVL (antibody, V domains shown)
VH: B4 VH
VL: B3 VL with S12P, T14N, P15I, Q17D, P18Q, K79T, V88L, G105S, V109L
notes: XT-H2 construct expressed in COS cells; also called XT-H2 hVH V2.0 + mVL
For B15, the ED50 in assay [2] came out at 8 nM.

B16: humanized XT-M4 hVH-V2.0 / hVL-V2.7 (antibody, human IgG1, V domains shown)
VH: EVQLVESGGGLVQPGGSLRLSCAASGFTFNNYWMTWVRQAPGKGLEWVASIDNSGDNTYYPDSVKDRFTISRDNAKNSLYLQMNSLRAEDTAVYYCARGGDITTGFDYWGQGTLVTVSS
VL: DIQMTQSPSSLSASVGDRVTITCRASQDVGIYVNWYQQKPGKAPKRLIYRATNLADGVPSRFSGSGSGTDFTLTISSLQPEDFATYYCLEFDEHPLTFGGGTKVEIK
Usually IC50 stands for the concentration that gives 50% inhibition. For B16, the IC50 in assay [3] worked out at 8.5 µg/mL.

B17: humanized XT-M4 hVH-V1.0 / hVL-V2.4 (antibody, human IgG1, V domains shown)
VH: B16 VH with D52N, A88S
VL: B16 VL with R46L, G66R
On to B17, for which, in assay [3], the half-inhibitory concentration (IC50) lay in the range of 4.5 to 8.5 µg/mL.

B18: humanized XT-M4 hVH-V2.0 / hVL-V2.13 (antibody, human IgG1, V domains shown)
VH: B16 VH
VL: B16 VL with G66R
In the case of B18, in assay [3], the 50% inhibitory concentration (IC50) is 1.5 µg/mL.

B19: humanized XT-M4 hVH-V2.0 / hVL-V2.14 (antibody, human IgG1, V domains shown)
VH: B16 VH
VL: B16 VL with Y36F, G66R
For B19, the IC50 in assay [3] was 0.2 µg/mL.

B20: humanized XT-M4 hVH-V2.0 / hVL-V2.12 (antibody, human IgG1, V domains shown)
VH: B16 VH
VL: B16 VL with K45R, G66R
In turn, B20 yielded a half-inhibitory concentration (IC50) in assay [3] of 2.7 µg/mL.

B21: humanized XT-M4 hVH-V1.0 / hVL-V2.7 (antibody, human IgG1, V domains shown)
VH: B16 VH with D52N, A88S
VL: B16 VL
Take B21: in assay [3], the IC50 was in the range of 4 to 9.5 µg/mL.

B22: humanized XT-M4 hVH-V2.0 / hVL-V2.11 (antibody, human IgG1, V domains shown)
VH: B16 VH
VL: B16 VL with Y36F, K45R, G66R
As for B22, the 50% inhibitory concentration (IC50) in assay [3] was 0.15 to 1.05 µg/mL and 0.1 to 0.45 µg/mL.

B23: humanized XT-M4 hVH-V2.0 / hVL-V2.4 (antibody, human IgG1, V domains shown)
VH: B16 VH
VL: B16 VL with R46L, G66R
In assay [3], B23 came in with a half-maximal inhibitory concentration (IC50) of 2.9 µg/mL.

B24: V2.0 (R40, Y46, I48, A71, K73) / v3.0 DPK24 grafted (antibody, V domains shown)
VH: B4 VH
VL: DIVMTQSPDSLAVSLGERATINCKSTKSLLNSDGFTYLDWYQQKPGQPPKLLIYLVSDRFSGVPDRFSGSGSGTDFTLTISSLQAEDVAVYYCFQSNSLPLTFGGGTKVEIK
notes: XT-H2 construct expressed in COS cells; also called XT-H2 hVH V2.0 + hVL V3.0
With B24, the ED50 in assay [2] stood at 8 nM.

B25: V2.1 (R40A) / v3.0 (antibody, V domains shown)
VH: B4 VH with R40A
VL: B24 VL
notes: XT-H2 construct expressed in COS cells; also called XT-H2 hVH V2.1 + hVL V3.0
B25 returned an ED50 in assay [2] of 5 nM.

B26: V2.2 (Y46E) / v3.0 (antibody, V domains shown)
VH: B4 VH with Y46E
VL: B24 VL
notes: XT-H2 construct expressed in COS cells; also called XT-H2 hVH V2.2 + hVL V3.0
Regarding B26, the ED50 in assay [2] turned out to be 5 nM.

B27: V2.3 (I48M) / v3.0 (antibody, V domains shown)
VH: B4 VH with I48M
VL: B24 VL
notes: XT-H2 construct expressed in COS cells; also called XT-H2 hVH V2.3 + hVL V3.0
The molecule B27 registered an ED50 in assay [2] of 5 nM.
